According to patent publication US7935343B2 (MedImmune Limited, dated 2011):
Residue numbers refer to the chain shown, from its start. Each block holds one binder with its values, some of them ahead of it.

Key:
[1] = target: human IL-13 (human); assay: cell-based or functional assay
[2] = target: T1, murine IL-13 (murine); assay: BIAcore, IgG4 coupled to the chip, IL-13 in flow
T1 chain: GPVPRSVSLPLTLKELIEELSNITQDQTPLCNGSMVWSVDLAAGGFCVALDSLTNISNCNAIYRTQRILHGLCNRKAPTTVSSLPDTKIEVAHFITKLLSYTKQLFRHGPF

[3] = target: human IL-13 (human); assay: BIAcore, IgG coupled to the chip, IL-13 in flow
[4] = target: human IL-13 (human); assay: BIAcore, IgG4 coupled to the chip, IL-13 in flow
[5] = target: native human IL-13 released from HDLM-2 cells (human); assay: cell-based or functional assay
Chain of native human IL-13 released from HDLM-2 cells (human) (chain, as listed by the source): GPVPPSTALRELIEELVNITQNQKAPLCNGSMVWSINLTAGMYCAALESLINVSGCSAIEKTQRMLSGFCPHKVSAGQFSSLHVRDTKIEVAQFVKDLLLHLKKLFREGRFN

[6] = target: human IL-13 (human); assay: cell-based or functional assay; remark: listed apart in the source

Chain of human IL-13 (human) (chain, as listed by the source): as above

IC50, TF-1 cell proliferation [1]: 3 nM
B1: BAK615E3 scFv (scFv, V domains shown)
VH: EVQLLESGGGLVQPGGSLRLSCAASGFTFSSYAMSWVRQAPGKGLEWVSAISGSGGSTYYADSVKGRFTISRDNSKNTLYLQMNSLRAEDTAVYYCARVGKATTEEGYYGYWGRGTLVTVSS
VL: NFMLTQPHSVSESPGKTVTISCTRSSGSIASNYVQWYQQRPGSAPTTVIYDDNQRPSGVPDRFSGSIDSSSNSASLTISGLKTEDEADYYCQSYDSNNDVFGGGTKVTVL

Kd [2]: 5.1 nM
koff [2]: 0.0198 s⁻¹
kon [2]: 3.9e+06 M⁻¹ s⁻¹
B2: BAK209B11 human IgG4 (antibody, V domains shown)
VH: VQLQESGGGGLVQPGGSLRLSCAASGFTFSSYGMSWVRQAPGKGLEWVSSISASGDSTFYADSVKGRFTISRDNNKNMVFLQVNSLRADDTAVYFCAKDWSQWLVGDAFDVWGRGTTVTVSS
VL: DIQLTQSPSTLSASVGDRVTITCRASQSVSLWVAWYQQRPGKAPKLLIYDGSTLQSGVPARFSGSGSGTEFTLTISSLQPDDFATYYCQQYKTFSTFGQGTKVEIKR

Kd [3]: 13.5 nM
koff [3]: 0.00741 s⁻¹
kon [3]: 549000 M⁻¹ s⁻¹
B3: BAK278D6 IgG (antibody, V domains shown)
VH: EVQLVQSGAEVKKPGASVKVSCKASGYTFRNYGLSWVRQAPGQGLEWMGWISANNGDTNYGQEFQGRITMTTETSTNTAHMELRSLRSDDTAVYYCVRDSSSNWARWFFDLWGKGTMVTVSS
VL: SYVLTQPPSVSVAPGQTARIPCGGNNIGSKLVHWYQQKPGQAPVLVVYDDGDRPSGIPERFSGSNSGNTATLTISRIDAGDEADYYCQVWDTGSDPVVFGGGTKLTVL

Kd [4]: 0.081 nM
IC50, HDLM-2 cell proliferation [5]: 3.5 nM
B4: BAK1183H4 IgG4 (antibody, V domains shown)
VH: QVQLVQSGAEVKKPGASVKVSCKASGYTFTNYGLSWVRQAPGQGLEWMGWINYDGGNTQYGQEFQGRVTMTTDTSTSTAYMELRSLRSDDTAVYYCARDSSSSWARWFFDLWGRGTLVTVSS
VL: B3 VL with Q16K, P21T, N26I, V47I, I77V, D78E

IC50, HDLM-2 cell proliferation [5]: 4.6 nM
B5: BAK502G9 IgG4 (antibody, V domains shown)
VH: B4 VH with N52S, Y53A, D54N, G55N, N57D, Q59N
VL: B3 VL with Q16K, P21T, N26I, V47I, I77V, D78E

IC50, TF-1 proliferation (Mean TF1) [6]: 0.2 nM
B6: BAK1167F2 scFv (scFv, V domains shown)
VH: B4 VH with T30E, N31Q, Y32T, L34V, N52S, Y53A, D54N, G55N, N57D, Q59N
VL: B3 VL with Q16K, P21T, N26I, V47I, I77V, D78E

IC50, TF-1 proliferation (Mean TF1) [6]: 0.2 nM
B7: BAK1183H4 scFv (scFv, V domains shown)
VH: B4 VH
VL: B3 VL with Q16K, P21T, N26I, V47I, I77V, D78E

IC50, TF-1 proliferation (Mean TF1) [6]: 8 nM
B8: BAK502G9 scFv (scFv, V domains shown)
VH: B4 VH with N52S, Y53A, D54N, G55N, N57D, Q59N
VL: B3 VL with Q16K, P21T, N26I, V47I, I77V, D78E

Kd [4]: 0.136 nM
IC50, HDLM-2 cell proliferation [5]: 1.1 nM
B9: BAK1167F2 IgG4 (antibody, V domains shown)
VH: B4 VH with T30E, N31Q, Y32T, L34V, N52S, Y53A, D54N, G55N, N57D, Q59N
VL: B3 VL with Q16K, P21T, N26I, V47I, I77V, D78E
